Measurements from US20260159585A1 (SHANGHAI HENLIUS BIOTECH, published 2026).

Experiments:
hCD47-His antigen [1] = target: T1, hCD47-His antigen (human, UniProt Q08722 19-139, limits assumed); assay: ELISA on coated hCD47-His, HRP anti-human Fc, OD450; plate1
T1 construct: also called human CD47; not shown: His tag

hCD47-His antigen [2] = target: T1, hCD47-His antigen; assay: ELISA on coated hCD47-His, HRP anti-human Fc, OD450; plate3
[3] = target: T2, human CD47 expressed on cells (human, UniProt Q08722 19-323); assay: FACS, whole cell binding to human primary red blood cells, FITC anti-human Fc; lower panel
T2 construct: whole, on cells; One molecule for all cell types; also called CD47 on Jurkat cells; CD47 on human red blood cells (RBCs)

[4] = target: T2, human CD47 expressed on cells; assay: FACS, whole cell binding to human primary red blood cells, FITC anti-human Fc; upper panel
hCD47-His antigen [5] = target: T1, hCD47-His antigen; assay: ELISA on coated hCD47-His, HRP anti-human Fc, OD450; plate2
hCD47-His antigen [6] = target: T1, hCD47-His antigen; assay: ELISA on coated hCD47-His, HRP anti-human Fc, OD450; plate4

EC50 (read off the curve) (hCD47-His antigen [1]): ~0.1 nM | EC50 (read off the curve) (hCD47-His antigen [2]): ~0.1 nM | EC50 (read off the curve) [3]: ~0.3 nM | EC50 (read off the curve) [4]: ~0.2 nM | EC50 (read off the curve) (hCD47-His antigen [5]): ~0.08 nM | EC50 (read off the curve) (hCD47-His antigen [6]): ~0.07 nM
B1: M1 #21 (antibody, V domains shown)
VH: QVQLQQWGAGLLKPSETLSLTCAVYGGSFSGYYWSWIRQPPGKGLEWIGEINQSGSTNYNPSLKSRVTISVDTSKNQFSLRLSSVTAADTAMYYCARFTGRPYYGMDVWGQGTTVTVSS
VL: SYELTQPPSVSATPGQRVTISCSGSESNIGSHKVKWYQQFAGAAPRLLIHGNDQRFSGVPDRFSGSKSGTSASLAISGLQSEDEADYYCAAWDDSLYGRVFGGGTKLTVL
